Test results taken from patent publication US20160130336A1.

Target: mVEGF (mouse (from the prefix m only; not spelled out in the filing)) (UniProt Q00731)
Test: BIAcore (SPR), column mVEGF

Sequence of mVEGF (mouse (from the prefix m only; not spelled out in the filing)) (Q00731 other isoform, or with tags, fused parts or gaps limits assumed): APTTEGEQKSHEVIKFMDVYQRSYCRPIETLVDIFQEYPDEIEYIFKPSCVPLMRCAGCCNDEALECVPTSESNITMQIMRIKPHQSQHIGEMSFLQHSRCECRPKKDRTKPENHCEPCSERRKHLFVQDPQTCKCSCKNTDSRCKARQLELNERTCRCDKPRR

## Avastin® (bevacizumab) (antibody)
  Kd: 6.88 nM
